{"source": "the Human Domainome abundance scans (Beltran et al. 2025)", "parents": {"B1": {"name": "POU domain, class 4, transcription factor 3, residues 185 to 256; numbered along this chain, Q15319 (parent)", "chain": "RELEAFAERFKQRRIKLGVTQADVGAALANLKIPGVGSLSQSTICRFESLTLSHNNMIALKPVLQAWLEEAE"}}, "note": "± gives the uncertainty stated by the source."}
{"variants_of": "B1", "test": "abundance fitness (aPCA) (normalised: wild type 0, dead -1); higher = more abundant; growth selection in yeast, the domain comes from the species named", "conditions": "Homo sapiens"}
{"variant": "RELEAFAERFKQRRIKLGVTQADVGAALANGKIPGVGSLSQSTICRFESLTLSHNNMIALKPVLQAWLEEAE", "note": "[L31G]", "abundance fitness": "-0.59 ± 0.42"}
{"variant": "RELEAFAERFKQRRIKLGVTQADVGAALANNKIPGVGSLSQSTICRFESLTLSHNNMIALKPVLQAWLEEAE", "note": "[L31N]", "abundance fitness": "-0.565 ± 0.3"}
{"variant": "RELEAFAERFKQRRIKLGVTQADVGAALANCKIPGVGSLSQSTICRFESLTLSHNNMIALKPVLQAWLEEAE", "note": "[L31C]", "abundance fitness": "0.352 ± 0.23"}
{"variant": "RELEAFAERFKQRRIKLGVTQADVGAALANEKIPGVGSLSQSTICRFESLTLSHNNMIALKPVLQAWLEEAE", "note": "[L31E]", "abundance fitness": "0.143 ± 0.37"}
{"variant": "RELEAFAERFKQRRIKLGVTQADVGAALANMKIPGVGSLSQSTICRFESLTLSHNNMIALKPVLQAWLEEAE", "note": "[L31M]", "abundance fitness": "-0.284 ± 0.18"}
{"variant": "RELEAFAERFKQRRIKLGVTQADVGAALANDKIPGVGSLSQSTICRFESLTLSHNNMIALKPVLQAWLEEAE", "note": "[L31D]", "abundance fitness": "0 ± 0.49"}
{"variant": "RELEAFAERFKQRRIKLGVTQADVGAALANQKIPGVGSLSQSTICRFESLTLSHNNMIALKPVLQAWLEEAE", "note": "[L31Q]", "abundance fitness": "-0.202 ± 0.28"}
{"variant": "RELEAFAERFKQRRIKLGVTQADVGAALANAKIPGVGSLSQSTICRFESLTLSHNNMIALKPVLQAWLEEAE", "note": "[L31A]", "abundance fitness": "0.204 ± 0.23"}
{"variant": "RELEAFAERFKQRRIKLGVTQADVGAALANFKIPGVGSLSQSTICRFESLTLSHNNMIALKPVLQAWLEEAE", "note": "[L31F]", "abundance fitness": "-0.034 ± 0.14"}
{"variant": "RELEAFAERFKQRRIKLGVTQADVGAALQNLKIPGVGSLSQSTICRFESLTLSHNNMIALKPVLQAWLEEAE", "note": "[A29Q]", "abundance fitness": "0.123 ± 0.11"}
{"variant": "RELEAFAERFKQRRIKLGVTQADVGAALKNLKIPGVGSLSQSTICRFESLTLSHNNMIALKPVLQAWLEEAE", "note": "[A29K]", "abundance fitness": "0.023 ± 0.056"}
{"variant": "RELEAFAERFKQRRIKLGVTQADVGAALINLKIPGVGSLSQSTICRFESLTLSHNNMIALKPVLQAWLEEAE", "note": "[A29I]", "abundance fitness": "-0.258 ± 0.25"}
{"variant": "RELEAFAERFKQRRIKLGVTQADVGAALRNLKIPGVGSLSQSTICRFESLTLSHNNMIALKPVLQAWLEEAE", "note": "[A29R]", "abundance fitness": "-0.114 ± 0.076"}
{"variant": "RELEAFAERFKQRRIKLGVTQADVGAALCNLKIPGVGSLSQSTICRFESLTLSHNNMIALKPVLQAWLEEAE", "note": "[A29C]", "abundance fitness": "0.031 ± 0.085"}
{"variant": "RELEAFAERFKQRRIKLGVTQADVGAALVNLKIPGVGSLSQSTICRFESLTLSHNNMIALKPVLQAWLEEAE", "note": "[A29V]", "abundance fitness": "-0.2 ± 0.072"}
{"variant": "RELEAFAERFKQRRIKLGVTQADVGAALSNLKIPGVGSLSQSTICRFESLTLSHNNMIALKPVLQAWLEEAE", "note": "[A29S]", "abundance fitness": "-0.09 ± 0.086"}
{"variant": "RELEAFAERFKQRRIKLGVTQADVGAALDNLKIPGVGSLSQSTICRFESLTLSHNNMIALKPVLQAWLEEAE", "note": "[A29D]", "abundance fitness": "-0.25 ± 0.12"}
{"variant": "RELEAFAERFKQRRIKLGVTQADVGAALLNLKIPGVGSLSQSTICRFESLTLSHNNMIALKPVLQAWLEEAE", "note": "[A29L]", "abundance fitness": "-0.21 ± 0.059"}
{"variant": "RELEAFAERFKQRRIKLGVTQADVGAALWNLKIPGVGSLSQSTICRFESLTLSHNNMIALKPVLQAWLEEAE", "note": "[A29W]", "abundance fitness": "-0.181 ± 0.074"}
{"variant": "RELEAFAERFKQRRIKLGVTQADVGAALHNLKIPGVGSLSQSTICRFESLTLSHNNMIALKPVLQAWLEEAE", "note": "[A29H]", "abundance fitness": "-0.083 ± 0.14"}
{"variant": "RELEAFAERFKQRRIKLGVTQADVGAALYNLKIPGVGSLSQSTICRFESLTLSHNNMIALKPVLQAWLEEAE", "note": "[A29Y]", "abundance fitness": "-0.305 ± 0.082"}
{"variant": "RELEAFAERFKQRRIKLGVTQADVGAALFNLKIPGVGSLSQSTICRFESLTLSHNNMIALKPVLQAWLEEAE", "note": "[A29F]", "abundance fitness": "-0.086 ± 0.12"}
{"variant": "RELEAFAERFKQRRIKLGVTQADVGAALGNLKIPGVGSLSQSTICRFESLTLSHNNMIALKPVLQAWLEEAE", "note": "[A29G]", "abundance fitness": "-0.022 ± 0.077"}
{"variant": "RELEAFAERFKQRRIKLGVTQADVGAALENLKIPGVGSLSQSTICRFESLTLSHNNMIALKPVLQAWLEEAE", "note": "[A29E]", "abundance fitness": "0.006 ± 0.18"}
{"variant": "RELEAFAERFKQRRIKLGVTQADVGAALMNLKIPGVGSLSQSTICRFESLTLSHNNMIALKPVLQAWLEEAE", "note": "[A29M]", "abundance fitness": "-0.119 ± 0.14"}
{"variant": "RELEAFAERFKQRRIKLGVTQADVGAALNNLKIPGVGSLSQSTICRFESLTLSHNNMIALKPVLQAWLEEAE", "note": "[A29N]", "abundance fitness": "-0.053 ± 0.095"}
{"variant": "RELEAFAERFKQRRIKLGVTQADVGAACANLKIPGVGSLSQSTICRFESLTLSHNNMIALKPVLQAWLEEAE", "note": "[L28C]", "abundance fitness": "-0.443 ± 0.21"}
{"variant": "RELEAFAERFKQRRIKLGVTQADVGAAKANLKIPGVGSLSQSTICRFESLTLSHNNMIALKPVLQAWLEEAE", "note": "[L28K]", "abundance fitness": "-0.915 ± 0.19"}
{"variant": "RELEAFAERFKQRRIKLGVTQADVGAAFANLKIPGVGSLSQSTICRFESLTLSHNNMIALKPVLQAWLEEAE", "note": "[L28F]", "abundance fitness": "-0.239 ± 0.2"}
{"variant": "RELEAFAERFKQRRIKLGVTQADVGAANANLKIPGVGSLSQSTICRFESLTLSHNNMIALKPVLQAWLEEAE", "note": "[L28N]", "abundance fitness": "-0.623 ± 0.12"}
{"variant": "RELEAFAERFKQRRIKLGVTQADVGAADANLKIPGVGSLSQSTICRFESLTLSHNNMIALKPVLQAWLEEAE", "note": "[L28D]", "abundance fitness": "-0.716 ± 0.16"}
{"variant": "RELEAFAERFKQRRIKLGVTQADVGAAMANLKIPGVGSLSQSTICRFESLTLSHNNMIALKPVLQAWLEEAE", "note": "[L28M]", "abundance fitness": "-0.095 ± 0.15"}
{"variant": "RELEAFAERFKQRRIKLGVTQADVGAAVANLKIPGVGSLSQSTICRFESLTLSHNNMIALKPVLQAWLEEAE", "note": "[L28V]", "abundance fitness": "-0.126 ± 0.079"}
{"variant": "RELEAFAERFKQRRIKLGVTQADVGAAYANLKIPGVGSLSQSTICRFESLTLSHNNMIALKPVLQAWLEEAE", "note": "[L28Y]", "abundance fitness": "-0.49 ± 0.23"}
{"variant": "RELEAFAERFKQRRIKLGVTQADVGAAEANLKIPGVGSLSQSTICRFESLTLSHNNMIALKPVLQAWLEEAE", "note": "[L28E]", "abundance fitness": "-0.985 ± 0.27"}
{"variant": "RELEAFAERFKQRRIKLGVTQADVGAAGANLKIPGVGSLSQSTICRFESLTLSHNNMIALKPVLQAWLEEAE", "note": "[L28G]", "abundance fitness": "-0.813 ± 0.22"}
{"variant": "RELEAFAERFKQRRIKLGVTQADVGAASANLKIPGVGSLSQSTICRFESLTLSHNNMIALKPVLQAWLEEAE", "note": "[L28S]", "abundance fitness": "-0.688 ± 0.12"}
